Patent US20250043302A1, “MUTATED HYDROXYPHENYLPYRUVATE DIOXYGENASE POLYPEPTIDE, AND CODING GENE AND USE THEREOF” (BEIJING DABEINONG BIOTECHNOLOGY CO., LTD., priority 2021, published 2025)
Substitutions are numbered along the chain they refer to. Names and notes keep the numbering of the source.

B1: AtHPPDm-F415W-02: nucleotide sequence encoding Arabidopsis thaliana HPPD with F415W; vector DBN11793 (nucleic acid)
DNA: ATGGGACATCAGAATGCTGCTGTATCAGAAAATCAAAATCATGATGATGGAGCCGCCTCCTCACCAGGGTTTAAGTTGGTTGGGTTCTCCAAGTTTGTACGGAAGAACCCAAAATCCGACAAGTTCAAGGTTAAACGCTTCCACCACATTGAATTCTGGTGCGGCGACGCCACCAATGTTGCTCGGCGTTTTTCATGGGGTTTAGGCATGAGATTCTCAGCAAAGAGTGACCTGAGCACCGGCAACATGGTTCATGCTAGCTATCTCTTAACATCTGGAGATTTGAGGTTTCTTTTCACGGCGCCGTACTCACCATCACTCTCCGCCGGCGAGATCAAACCCACCACGACTGCAAGCATACCTTCATTTGATCATGGTAGTTGCAGATCCTTCTTCTCGTCGCACGGCCTAGGGGTGCGCGCGGTCGCCATCGAAGTTGAAGATGCAGAATCAGCGTTTAGTATCAGCGTGGCAAATGGAGCTATTCCTTCCTCCCCTCCAATTGTCCTCAATGAGGCTGTAACTATTGCCGAGGTGAAGTTGTATGGAGATGTTGTGCTGAGATATGTTTCTTACAAGGCAGAGGACACTGAGAAATCTGAATTTTTGCCTGGTTTTGAAAGGGTCGAGGATGCTTCAAGTTTTCCTCTTGATTACGGCATACGACGGTTGGATCACGCGGTTGGAAATGTACCAGAACTTGGGCCGGCGCTCACTTATGTGGCTGGTTTCACTGGATTCCATCAATTTGCTGAGTTCACAGCTGATGATGTTGGGACTGCTGAAAGTGGGTTGAACTCTGCAGTCCTCGCCTCTAATGATGAAATGGTGCTCCTCCCGATCAACGAGCCTGTGCATGGCACCAAAAGGAAATCACAAATACAGACATATCTTGAGCACAATGAAGGTGCAGGGCTTCAACATCTTGCACTGATGTCTGAAGACATTTTCCGTACGCTGAGAGAGATGAGGAAGAGAAGTAGTATTGGTGGATTTGACTTCATGCCTTCTCCCCCACCAACTTACTACCAGAACTTGAAGAAGAGGGTTGGTGATGTGCTATCTGATGACCAGATCAAGGAGTGTGAAGAATTGGGCATTCTTGTTGATCGGGACGACCAAGGAACATTACTGCAGATATTTACAAAACCACTTGGTGACCGCCCCACTATTTTTATTGAGATCATACAAAGAGTCGGCTGCATGATGAAGGATGAGGAAGGAAAAGCATATCAATCTGGTGGTTGTGGCGGCTTTGGGAAAGGAAACTGGTCTGAGCTGTTCAAATCCATCGAGGAGTATGAGAAGACCTTGGAGGCCAAGCAGCTCGTGGGTTGA
modifications: AtHPPDm-F415W-02 Nucleotide Sequence
notes: vector DBN11793
B2: AtHPPDm-F372A-F415W-02: nucleotide sequence encoding Arabidopsis thaliana HPPD with F372A+F415W; vector DBN11794 (nucleic acid)
DNA: B1 DNA with T1141G, T1142C, T1143C
modifications: AtHPPDm-F372A-F415W-02 Nucleotide Sequence
notes: vector DBN11794
B3: AtHPPDm-F383Y-02: nucleotide sequence encoding Arabidopsis thaliana HPPD with F383Y; vector DBN11797 (nucleic acid)
DNA: B1 DNA with T1175A, G1271T, G1272C
modifications: AtHPPDm-F383Y-02 Nucleotide Sequence
notes: vector DBN11797

The molecules below were run on Arabidopsis thaliana T1 plants (assay: Isoxaflutole tolerance of transgenic Arabidopsis thaliana T1 plants (spray, bleached leaf area grade, damage score)). Settings: isoxaflutole 35 g ai/ha.
Type: in vivo
Method in brief: (§1)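 Damage graded 0–3 from the proportion of bleached leaf area 7 days after spraying. Plants were glufosinate-selected T1 lines, 18 days after sowing, plus vector and wild-type controls. Rates: mesotrione 52.5–420, isoxaflutole 35–280, topramezone 25–200 g ai/ha, with water (0×).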

Molecule	Resistance evaluation	Scores
B1	Non-resistant	100
B2	Poorly	54
B3	Non-resistant	100

Same assay, conditions: isoxaflutole 35 g ai/ha; number of plants in grade

Molecule	Classification and statistics of the grade of pesticide damage Grade 0	Classification and statistics of the grade of pesticide damage Grade 1	Classification and statistics of the grade of pesticide damage Grade 2	Classification and statistics of the grade of pesticide damage Grade 3
B1	0	0	0	16
B2	0	9	4	3
B3	0	0	0	16

Same assay, conditions: isoxaflutole 70 g ai/ha

Molecule	Resistance evaluation	Scores
B1	Non-resistant	100
B2	Non-resistant	100
B3	Non-resistant	100

Same assay, conditions: isoxaflutole 70 g ai/ha; number of plants in grade

Molecule	Classification and statistics of the grade of pesticide damage Grade 0	Classification and statistics of the grade of pesticide damage Grade 1	Classification and statistics of the grade of pesticide damage Grade 2	Classification and statistics of the grade of pesticide damage Grade 3
B1	0	0	0	16
B2	0	0	0	16
B3	0	0	0	16

What follows are molecules tested on Arabidopsis thaliana T1 plants (assay: Topramezone tolerance of transgenic Arabidopsis thaliana T1 plants (spray, bleached leaf area grade, damage score)). Settings: Table 13; topramezone 25 g ai/ha (1×).
Type: in vivo
Method in brief: as §1

Molecule	Resistance evaluation
B1	Non-resistant
B2	Poorly
B3	Non-resistant

Same assay, conditions: Table 13; topramezone 25 g ai/ha (1×); number of plants at grade 0

Molecule	Classification and statistics of the grade of pesticide damage Grade 0
B1	0
B2	4
B3	0

Same assay, conditions: Table 13; topramezone 25 g ai/ha (1×); number of plants at grade 1

Molecule	Classification and statistics of the grade of pesticide damage Grade 1
B1	0
B2	4
B3	0

Same assay, conditions: Table 13; topramezone 25 g ai/ha (1×); number of plants at grade 2

Molecule	Classification and statistics of the grade of pesticide damage Grade 2
B1	0
B2	7
B3	0

Same assay, conditions: Table 13; topramezone 25 g ai/ha (1×); number of plants at grade 3

Molecule	Classification and statistics of the grade of pesticide damage Grade 3
B1	16
B2	1
B3	16

Same assay, conditions: Table 13; topramezone 25 g ai/ha (1×); pesticide damage score

Molecule	Scores
B1	100
B2	44
B3	100

Same assay, conditions: Table 13; topramezone 100 g ai/ha (4×)

Molecule	Resistance evaluation
B1	Non-resistant
B2	Non-resistant
B3	Non-resistant

Same assay, conditions: Table 13; topramezone 100 g ai/ha (4×); number of plants at grade 0

Molecule	Classification and statistics of the grade of pesticide damage Grade 0
B1	0
B2	0
B3	0

Same assay, conditions: Table 13; topramezone 100 g ai/ha (4×); number of plants at grade 1

Molecule	Classification and statistics of the grade of pesticide damage Grade 1
B1	0
B2	0
B3	0

Same assay, conditions: Table 13; topramezone 100 g ai/ha (4×); number of plants at grade 2

Molecule	Classification and statistics of the grade of pesticide damage Grade 2
B1	0
B2	3
B3	0

Same assay, conditions: Table 13; topramezone 100 g ai/ha (4×); number of plants at grade 3

Molecule	Classification and statistics of the grade of pesticide damage Grade 3
B1	16
B2	13
B3	16

Same assay, conditions: Table 13; topramezone 100 g ai/ha (4×); pesticide damage score

Molecule	Scores
B1	100
B2	94
B3	100

These molecules were tested on Arabidopsis thaliana T1 plants (assay: Mesotrione tolerance of transgenic Arabidopsis thaliana T1 plants (spray, bleached leaf area grade, damage score)). Settings: mesotrione 52.5 g ai/ha.
Type: in vivo
Set-up: Scores: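 damage score 0-100 computed as Σ(N×S)/(T×M)×100 over grades 0-3 with higher meaning more damage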
Method in brief: as §1

Molecule	Resistance evaluation	Scores
B1	Non-resistant	100
B2	Poorly resistant	65
B3	Non-resistant	100

Same assay, conditions: mesotrione 52.5 g ai/ha; number of plants in grade

Molecule	Classification and statistics of the grade of pesticide damage Grade 0	Classification and statistics of the grade of pesticide damage Grade 1	Classification and statistics of the grade of pesticide damage Grade 2	Classification and statistics of the grade of pesticide damage Grade 3
B1	0	0	0	16
B2	0	4	9	3
B3	0	0	0	16

Same assay, conditions: mesotrione 105 g ai/ha

Molecule	Resistance evaluation	Scores
B1	Non-resistant	100
B2	Non-resistant	100
B3	Non-resistant	100

Same assay, conditions: mesotrione 105 g ai/ha; number of plants in grade

Molecule	Classification and statistics of the grade of pesticide damage Grade 0	Classification and statistics of the grade of pesticide damage Grade 1	Classification and statistics of the grade of pesticide damage Grade 2	Classification and statistics of the grade of pesticide damage Grade 3
B1	0	0	0	16
B2	0	0	0	16
B3	0	0	0	16
